These results are taken from PMC11388069.

A short description of data set [1]: immunoprecipitation, western blot. Particulars: glycan changed form; control: parental MCF7DOX. For orientation: Immunoblotting shows a protein as a band on a membrane.
Data set [2] is described as follows: proteomics and blot of isolated microvesicles. Particulars: glycan changed form; control: MCF7DOX-MVs.
A short description of data set [3]: immunofluorescence, plasma membrane P-gp. Particulars: glycan changed form; control: parental MCF7DOX.
Data set [4] can be described thus: NHS-LC-biotin labelled membranous P-gp degradation. Particulars: glycan changed form; control: parental MCF7DOX.
Data set [5] in a line: AHA labelling of newly synthesized P-gp. Particulars: glycan changed form; control: parental MCF7DOX.

As to “P-glycoprotein (P-gp, MDR1): MGAT3 overexpression”, in data set [1], the expression_or_secretion result was “decreases”. Moreover, the “other: recruitment into microvesicles” value in data set [2] was “decreases”. In addition, the localisation_or_trafficking entry in data set [3] is listed as “decreases”. Besides, the degradation_or_half_life entry in data set [4] is “increases”. Also, in data set [5], the “other: new protein synthesis” value is listed as “no change”.
